Source: the Human Domainome abundance scans (Beltran et al. 2025)
± gives the uncertainty stated by the source.

B1: Cullin-9, residues 2234 to 2275; numbered along this chain, Q8IWT3 (parent)
chain: KRCPSCQAPIEKNEGCLHMTCAKCNHGFCWRCLKSWKPNHKD

Variants of: B1
Experiment: abundance fitness (aPCA) (normalised: wild type 0, dead -1); higher = more abundant; growth selection in yeast, the domain comes from the species named
Settings: Homo sapiens

Point of comparison: KRCPSCQAPIESNEGCLHMTCAKCNHGFCWRCLKSWKPNHKD [K12S], abundance fitness -0.112 ± 0.085. Against it:
- KRCPSCQAPIETNEGCLHMTCAKCNHGFCWRCLKSWKPNHKD [K12T] — within error, -0.046 ± 0.095
- KRCPSCQAPIEYNEGCLHMTCAKCNHGFCWRCLKSWKPNHKD [K12Y] — within error, -0.152 ± 0.17
- KRCPSCQAPIEDNEGCLHMTCAKCNHGFCWRCLKSWKPNHKD [K12D] — within error, -0.248 ± 0.12
- KRCPSCQAPIEHNEGCLHMTCAKCNHGFCWRCLKSWKPNHKD [K12H] — within error, -0.151 ± 0.2
- KRCPSCQAPIEQNEGCLHMTCAKCNHGFCWRCLKSWKPNHKD [K12Q] — within error, 0.008 ± 0.091
- KRCPSCQAPIELNEGCLHMTCAKCNHGFCWRCLKSWKPNHKD [K12L] — within error, -0.201 ± 0.081
- KRCPSCQAPIEVNEGCLHMTCAKCNHGFCWRCLKSWKPNHKD [K12V] — within error, -0.2 ± 0.089
- KRCPSCQAPIEANEGCLHMTCAKCNHGFCWRCLKSWKPNHKD [K12A] — higher, 0.126 ± 0.081
- KRCPSCQAPIEINEGCLHMTCAKCNHGFCWRCLKSWKPNHKD [K12I] — lower, -0.492 ± 0.23
- KRCPSCQAPIEPNEGCLHMTCAKCNHGFCWRCLKSWKPNHKD [K12P] — higher, 0.057 ± 0.081
- KRCPSCQAPIEMNEGCLHMTCAKCNHGFCWRCLKSWKPNHKD [K12M] — within error, -0.22 ± 0.12
- KRCPSCQAPIEGNEGCLHMTCAKCNHGFCWRCLKSWKPNHKD [K12G] — higher, 0.268 ± 0.071
- KRCPSCQAPIEFNEGCLHMTCAKCNHGFCWRCLKSWKPNHKD [K12F] — within error, -0.469 ± 0.38
- KRCPSCQAPHEKNEGCLHMTCAKCNHGFCWRCLKSWKPNHKD [I10H] — lower, -0.588 ± 0.18
- KRCPSCQAPNEKNEGCLHMTCAKCNHGFCWRCLKSWKPNHKD [I10N] — lower, -0.534 ± 0.21
- KRCPSCQAPEEKNEGCLHMTCAKCNHGFCWRCLKSWKPNHKD [I10E] — within error, 0.059 ± 0.13
- KRCPSCQAPKEKNEGCLHMTCAKCNHGFCWRCLKSWKPNHKD [I10K] — lower, -0.598 ± 0.16
- KRCPSCQAPWEKNEGCLHMTCAKCNHGFCWRCLKSWKPNHKD [I10W] — lower, -0.555 ± 0.1
- KRCPSCQAPAEKNEGCLHMTCAKCNHGFCWRCLKSWKPNHKD [I10A] — within error, -0.193 ± 0.11
- KRCPSCQAPTEKNEGCLHMTCAKCNHGFCWRCLKSWKPNHKD [I10T] — within error, -0.083 ± 0.1
- KRCPSCQAPVEKNEGCLHMTCAKCNHGFCWRCLKSWKPNHKD [I10V] — within error, -0.138 ± 0.085
- KRCPSCQAPGEKNEGCLHMTCAKCNHGFCWRCLKSWKPNHKD [I10G] — lower, -0.303 ± 0.081
- KRCPSCQAPPEKNEGCLHMTCAKCNHGFCWRCLKSWKPNHKD [I10P] — lower, -0.536 ± 0.17
- KRCPSCQAPREKNEGCLHMTCAKCNHGFCWRCLKSWKPNHKD [I10R] — lower, -0.534 ± 0.089
- KRCPSCQAPQEKNEGCLHMTCAKCNHGFCWRCLKSWKPNHKD [I10Q] — within error, -0.231 ± 0.12
- KRCPSCQAPDEKNEGCLHMTCAKCNHGFCWRCLKSWKPNHKD [I10D] — within error, -0.011 ± 0.09
- KRCPSCQAPSEKNEGCLHMTCAKCNHGFCWRCLKSWKPNHKD [I10S] — within error, -0.233 ± 0.095
- KRCPSCQAPISKNEGCLHMTCAKCNHGFCWRCLKSWKPNHKD [E11S] — lower, -0.41 ± 0.12
- KRCPSCQAPIQKNEGCLHMTCAKCNHGFCWRCLKSWKPNHKD [E11Q] — within error, -0.448 ± 0.33
- KRCPSCQAPIWKNEGCLHMTCAKCNHGFCWRCLKSWKPNHKD [E11W] — within error, -0.069 ± 0.14
- KRCPSCQAPIGKNEGCLHMTCAKCNHGFCWRCLKSWKPNHKD [E11G] — lower, -0.34 ± 0.079
- KRCPSCQAPIAKNEGCLHMTCAKCNHGFCWRCLKSWKPNHKD [E11A] — within error, -0.185 ± 0.14
- KRCPSCQAPITKNEGCLHMTCAKCNHGFCWRCLKSWKPNHKD [E11T] — within error, -0.159 ± 0.15
- KRCPSCQAPIPKNEGCLHMTCAKCNHGFCWRCLKSWKPNHKD [E11P] — within error, -0.309 ± 0.17
- KRCPSCQAPIYKNEGCLHMTCAKCNHGFCWRCLKSWKPNHKD [E11Y] — within error, 0.319 ± 0.45
- KRCPSCQAPILKNEGCLHMTCAKCNHGFCWRCLKSWKPNHKD [E11L] — lower, -0.318 ± 0.095
- KRCPSCQAPIHKNEGCLHMTCAKCNHGFCWRCLKSWKPNHKD [E11H] — within error, -0.138 ± 0.3
- KRCPSCQAPIVKNEGCLHMTCAKCNHGFCWRCLKSWKPNHKD [E11V] — lower, -0.408 ± 0.1
- KRCPSCQAPIMKNEGCLHMTCAKCNHGFCWRCLKSWKPNHKD [E11M] — lower, -0.383 ± 0.13
- KRCPSCQAPIKKNEGCLHMTCAKCNHGFCWRCLKSWKPNHKD [E11K] — within error, -0.27 ± 0.12
- KRCPSCQAPIDKNEGCLHMTCAKCNHGFCWRCLKSWKPNHKD [E11D] — within error, -0.137 ± 0.2
- KRCPSCQAPICKNEGCLHMTCAKCNHGFCWRCLKSWKPNHKD [E11C] — lower, -0.487 ± 0.16
- KRCPSCQAPIEKHEGCLHMTCAKCNHGFCWRCLKSWKPNHKD [N13H] — within error, -0.165 ± 0.14
- KRCPSCQAPIEKQEGCLHMTCAKCNHGFCWRCLKSWKPNHKD [N13Q] — within error, -0.044 ± 0.097
- KRCPSCQAPIEKEEGCLHMTCAKCNHGFCWRCLKSWKPNHKD [N13E] — within error, -0.002 ± 0.1
- KRCPSCQAPIEKGEGCLHMTCAKCNHGFCWRCLKSWKPNHKD [N13G] — within error, -0.059 ± 0.07
- KRCPSCQAPIEKFEGCLHMTCAKCNHGFCWRCLKSWKPNHKD [N13F] — within error, -0.36 ± 0.17
- KRCPSCQAPIEKPEGCLHMTCAKCNHGFCWRCLKSWKPNHKD [N13P] — higher, 0.183 ± 0.12
- KRCPSCQAPIEKAEGCLHMTCAKCNHGFCWRCLKSWKPNHKD [N13A] — within error, -0.071 ± 0.074
- KRCPSCQAPIEKLEGCLHMTCAKCNHGFCWRCLKSWKPNHKD [N13L] — higher, 0.229 ± 0.092
- KRCPSCQAPIEKCEGCLHMTCAKCNHGFCWRCLKSWKPNHKD [N13C] — within error, -0.101 ± 0.15
- KRCPSCQAPIEKKEGCLHMTCAKCNHGFCWRCLKSWKPNHKD [N13K] — higher, 0.117 ± 0.11
- KRCPSCQAPIEKIEGCLHMTCAKCNHGFCWRCLKSWKPNHKD [N13I] — higher, 0.493 ± 0.18
- KRCPSCQAPIEKSEGCLHMTCAKCNHGFCWRCLKSWKPNHKD [N13S] — within error, -0.096 ± 0.1
- KRCPSCQAPIEKREGCLHMTCAKCNHGFCWRCLKSWKPNHKD [N13R] — within error, -0.034 ± 0.075
- KRCPSCQAPIEKMEGCLHMTCAKCNHGFCWRCLKSWKPNHKD [N13M] — within error, -0.023 ± 0.097
- KRCPSCQAPIEKDEGCLHMTCAKCNHGFCWRCLKSWKPNHKD [N13D] — within error, -0.209 ± 0.13
- KRCPSCQAYIEKNEGCLHMTCAKCNHGFCWRCLKSWKPNHKD [P9Y] — within error, -0.265 ± 0.18
- KRCPSCQAWIEKNEGCLHMTCAKCNHGFCWRCLKSWKPNHKD [P9W] — higher, 0.335 ± 0.14
